Km and kcat data for two proteins are collected here from paper doi:10.1101/2025.10.14.682086v1.

Substrate in series [1]: CC1=CC(=O)c2ccccc2C1=O
Put plainly: purified protein, by the assay type. The following applies: 25.0 °C.

Substrate in series [2]: NC(=O)C1=CN([C@@H]2O[C@H](COP(=O)(O)OP(=O)(O)OC[C@H]3O[C@@H](n4cnc5c(N)ncnc54)[C@H](O)[C@@H]3O)[C@@H](O)[C@H]2O)C=CC1
Put plainly: purified protein, by the assay type. The following applies: 25.0 °C.

B1: Ec-NDH2 (Escherichia coli K-12) (protein)
chain: TTPLKKIVIVGGGAGGLEMATQLGHKLGRKKKAKITLVDRNHSHLWKPLLHEVATGSLDEGVDALSYLAHARNHGFQFQLGSVIDIDREAKTITIAELRDEKGELLVPERKIAYDTLVMALGSTSNDFNTPGVKENCIFLDNPHQARRFHQEMLNLFLKYSANLGANGKVNIAIVGGGATGVELSAELHNAVKQLHSYGYKGLTNEALNVTLVEAGERILPALPPRISAAAHNELTKLGVRVLTQTMVTSADEGGLHTKDGEYIEADLMVWAAGIKAPDFLKDIGGLETNRINQLVVEPTLQTTRDPDIYAIGDCASCPRPEGGFVPPRAQAAHQMATCAMNNILAQMNGKPLKNYQYKDHGSLVSLSNFSTVGSLMGNLTRGSMMIEGRIARFVYISLYRMHQIALHGYFKTGLMMLVGSINRVIRPRLKLH
As to B1, the Km in series [1] was 15.6 ± 8.5 µM; in series [2] it was 1.7 ± 1.09 µM. In addition, the kcat in series [1] is 107 ± 13.1 s⁻¹; in series [2], 43.6 ± 4 s⁻¹.

B2: Mc-NDH2 (Methylococcus capsulatus str. Bath) (protein)
chain: MQRKRNEQPLPRILIIGGGAGGLELATKLGRTLGKKGKAQVTLIDAHPTHIWKPLLHEVAAGTMDVNDDELDYLAQANACHFRFVLGRMSGLDRVAKQVKLAPMTNAAGEEVIPACSYPYDILVIAVGSVCNDFGVPGVAQNCIFLDTTEEAQQFHRRLLEAYMRAHAMGGAKQPGQLDVAIVGGGATGIELSAQLHQATRLLAAYGLDNVKPSDIKIHLIEAAPRLLPELPPRLSESTVKQLLALDVQLHLGERVVEARPDGVLTHTGKFIPATLKVWAAGVKAPDFLAQTDLETNRLNQVVVRQTLQTTRDDHIFAIGDCSACPWPERNTTVPPRAQSAHQQASTAYENILRLLAGKAPVDYRYRDYGSLVSLGKYSTVGNLMGNLLGSVMIEGVIARLVYLSLYKMHQYALFGPLRVGLIMIAHFFSQKLRPKIKLH
Take B2: in series [1], the Michaelis-Menten constant (Km) stood at 12.9 ± 5.4 µM and the catalytic constant (kcat) is 3.9 ± 0.4 s⁻¹. In series [2], the Km worked out at 9.5 ± 5.3 µM and the kcat was determined as 9.08 ± 1.1 s⁻¹.
